Laboratory results as given in IntAct's records for PubMed 12551906.

B1: Dolichyl-phosphate-mannose--protein mannosyltransferase 1 (Saccharomyces cerevisiae), P33775 (parent)
chain: MSEEKTYKRVEQDDPVPELDIKQGPVRPFIVTDPSAELASLRTMVTLKEKLLVACLAVFTAVIRLHGLAWPDSVVFDEVHFGGFASQYIRGTYFMDVHPPLAKMLYAGVASLGGFQGDFDFENIGDSFPSTTPYVLMRFFSASLGALTVILMYMTLRYSGVRMWVALMSAICFAVENSYVTISRYILLDAPLMFFIAAAVYSFKKYEMYPANSLNAYKSLLATGIALGMASSSKWVGLFTVTWVGLLCIWRLWFMIGDLTKSSKSIFKVAFAKLAFLLGVPFALYLVFFYIHFQSLTLDGDGASFFSPEFRSTLKNNKIPQNVVADVGIGSIISLRHLSTMGGYLHSHSHNYPAGSEQQQSTLYPHMDANNDWLLELYNAPGESLTTFQNLTDGTKVRLFHTVTRCRLHSHDHKPPVSESSDWQKEVSCYGYSGFDGDANDDWVVEIDKKNSAPGVAQERVIALDTKFRLRHAMTGCYLFSHEVKLPAWGFEQQEVTCASSGRHDLTLWYVENNSNPLLPEDTKRISYKPASFISKFIESHKKMWHINKNLVEPHVYESQPTSWPFLLRGISYWGENNRNVYLLGNAIVWWAVTAFIGIFGLIVITELFSWQLGKPILKDSKVVNFHVQVIHYLLGFAVHYAPSFLMQRQMFLHHYLPAYYFGILALGHALDIIVSYVFRSKRQMGYAVVITFLAASVYFFKSFSPIIYGTPWTQELCQKSQWLSGWDYNCNTYFSSLEEYKNQTLTKRESQPAATSTVEEITIEGDGPSYEDLMNEDGKKIFKDTEGNELDPEVVKKMLEEEGANILKVEKRAVLE
partner: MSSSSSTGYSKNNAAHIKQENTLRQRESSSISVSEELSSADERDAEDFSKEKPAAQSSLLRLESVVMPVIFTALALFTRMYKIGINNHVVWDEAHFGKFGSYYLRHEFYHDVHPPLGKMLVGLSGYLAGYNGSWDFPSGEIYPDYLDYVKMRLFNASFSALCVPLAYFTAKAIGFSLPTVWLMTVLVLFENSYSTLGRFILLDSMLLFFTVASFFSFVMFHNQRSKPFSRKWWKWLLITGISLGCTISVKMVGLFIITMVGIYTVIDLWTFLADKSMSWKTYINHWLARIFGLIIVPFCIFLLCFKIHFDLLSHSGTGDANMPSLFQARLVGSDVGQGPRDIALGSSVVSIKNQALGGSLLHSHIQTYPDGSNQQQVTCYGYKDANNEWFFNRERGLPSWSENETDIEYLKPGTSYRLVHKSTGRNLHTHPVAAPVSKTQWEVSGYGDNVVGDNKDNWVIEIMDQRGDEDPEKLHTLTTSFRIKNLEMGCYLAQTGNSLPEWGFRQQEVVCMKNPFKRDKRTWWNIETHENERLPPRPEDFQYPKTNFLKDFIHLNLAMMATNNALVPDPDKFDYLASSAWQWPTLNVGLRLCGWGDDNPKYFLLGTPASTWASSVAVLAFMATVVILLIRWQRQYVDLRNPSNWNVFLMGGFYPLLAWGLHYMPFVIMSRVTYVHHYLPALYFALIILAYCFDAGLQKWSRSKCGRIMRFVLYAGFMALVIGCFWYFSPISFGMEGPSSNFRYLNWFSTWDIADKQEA

Variants of: B1
Settings: with pmt2_yeast PMT2, P31382
R138A was tested, and the “effect of a mutation on the interaction” value was “disrupting interaction strength”.
R138K was tested, and the “effect of a mutation on the interaction” value was “decreasing interaction strength”.
